In US20240270826A1 (NATIONAL RESEARCH COUNCIL OF CANADA, published 2024):

Tests used:
[1] = biological target: SARS-CoV-2 spike protein S on live virus, Wuhan (strain SARS-CoV-2/Canada/VIDO-01/2020) (SARS-CoV-2 (Wuhan), UniProt P0DTC2 14-1273); experiment: cell-based or functional assay
[2] = biological target: Human SARS-CoV-2_Wuhan S (SmT1) (SARS-CoV-2 (Wuhan), UniProt P0DTC2 14-1208); experiment: flow cytometry SVNA, VHH-Fc vs biotin-S binding to Vero E6 ACE2
[3] = biological target: Human SARS-CoV-2_Wuhan S (SmT1) (SARS-CoV-2 (Wuhan), UniProt P0DTC2 14-1208); experiment: tandem SPR, immobilized S, orientation 1: VHH alone

Row | Binder | LVNA IC50 [1] | IC50 [2] | IC99 [2] | Imax % [2] | End 1st inj (RU) [3]
1 | NRCoV2-14 VHH-Fc (Fc fusion, bivalent VHH-Fc) EVQLVSSGGGLVQAGGSLRLSCEASGTTFSHYAVGWYRQAPGKQREWVASISVFGSTTYGGSVAGRFTISRDNDKNTVDLQMNSLKPEDTAVYYCHAVNADIGGDYWGQGTQVTVSS | 3.1 nM | 9.9 nM | 160 nM | 83% | –
2 | NRCoV2-20 VHH-Fc (Fc fusion, bivalent VHH-Fc) EVQLQQSGGGLVQPGGSLRLSCAASGRTFSNYVVGWFRQAPQAPGKDHEFVAVISGSDTETYYADSVKGRFTISRDNAKNTVYLQMNSLKPEDTAVYYCAADRGMSYYYTRATEYYYWGQGTQVTVSS | 11.2 nM | 8.7 nM | 70.3 nM | 66% | –
3 | NRCoV2-10 VHH-Fc (Fc fusion, bivalent VHH-Fc) QLQLQESGGGLVQPGGSLTLSCAASGNTFSRSNMHWYRQAPGAQREWVAAISSRGISTYAYSAKGRFTISRDNAKNTVSLQMNSLKPEDTAVYYCYAADDLGDYWGQGTQVTVSS | 1.28 nM | 7.7 nM | 77.3 nM | 91% | –
4 | NRCoV2-18 VHH-Fc (Fc fusion, bivalent VHH-Fc) EVQLVESGGGLVQAGGSLRLSCVASGITISGYNMAWWRQTRGKQTERVAFINSGGSTTYSDSVKGRFTISRDNGKNTAYLQMNSLNAEDTADYFCSLHTSHDYWGQGTQVTVSS | 6.4 nM | 12 nM | 680 nM | 90% | –
5 | NRCoV2-12 VHH-Fc (Fc fusion, bivalent VHH-Fc) EVQLQQSGGGLVQAGGSLRLSCAASGRTFRNYVMGWFRQAPQAPGKDHEFVAAISWGGTEIYYADSVKGRFTISRDNAKNTVYLQMNSLKPEDTAVYYCAADRGLSYYYTRTTEYNYWGQGTQVTVSS | 2.82 nM | 7.3 nM | 840 nM | 90% | –
6 | NRCoV2-17 VHH-Fc (Fc fusion, bivalent VHH-Fc) EVQLQQSGGGLVQTGGSLRLSCAAAGSPFSQLAMSWYRQISGKERAWVASISPTGNRSYSKIAKGRFTISRDNAKNTVTLQMTSLKPEDTAAYICQAANVNGGDYWGQGTQVTVSS | 2.82 nM | 8.6 nM | 101 nM | 88% | –
7 | NRCoV2-S2F3 VHH (VHH) VHH: EVQLVQSGGGLVQAGGSLRLSCATSVRILSVPAMGWYRQAPGKEREMVAVITSGGSTNYADSVKGRFTISRDNAKNTVYLQMNSLKLEDTAVYQCNLRDILSQPFWGQGTQVTVSS | – | – | – | – | 50 RU
8 | NRCoV2-05 VHH-Fc (Fc fusion, bivalent VHH-Fc) EVKLVQSGGGLVQPGGSLRLSCAASGFIFSNYAMNWVRQAPGKGLEWVSGINSGGGDTRYADSVKGRFTVSRDNAKNTLYLQMNSLKPEDTGVYYCSKGPVSSYYGSGYDYRGQGTQVTVSS | 0.0008 nM | 6.7 nM | 37 nM | 95% | –
9 | NRCoV2-MRed05 VHH-Fc (Fc fusion, bivalent VHH-Fc) EVQLVESGGGLVQPGGSLRLSCAASGFTLDYYAIGWFRQAPGKEREGVSCISSSDGSTLYADSVKGRFTISRDNAKNTVYLQMNSLKPEDTAVYYCATGPQAYYSGSYYFQCPQAGMDYWGKGTQVTVSS | 0.17 nM | 6.1 nM | 36.3 nM | 95% | –
10 | NRCoV2-MRed04 VHH-Fc (Fc fusion, bivalent VHH-Fc) EVQLVESGGGLVQPGRSLRLSCAASGNSFSISTMGWFRQAPGKERELVASIWSDTTTSYADSVKGRFTISTDNTRTKVYLQMSSLNPEDTAVYYCAADRGFVVRGQYDYWGQGTQVTVSS | 9.61 nM | 4.6 nM | 262 nM | 73% | –
11 | NRCoV2-15 VHH-Fc (Fc fusion, bivalent VHH-Fc) EVQLVSSGGGLVEAGGSLRLSCIASGSTSGRNTMGWFRQAPGKQREWVAIVSTSGATNYAGSVKGRFTLSRDNAKNAVYLQMNNLKPEDTAVYYCYAAYGGGGDYWGQGTQVTVSS | 0.73 nM | 8.1 nM | 71.5 nM | 95% | –
